Assay [1] addresses T1, hIL4Rα-ECD(26-232)-His (human, UniProt P24394 26-232).
T1 construct: Labelled with biotin (NH2-reactive) for the ELISA; unlabelled as analyte in Biacore; also called hIL4Rα-ECD-His
In words: SPR (Biacore 8K), antibody captured on Protein A, antigen as analyte, 1:1 model. In general terms: Surface plasmon resonance follows binding to a sensor surface in real time, without labels.

Assay [2] has as its target T2, hIL4Rα-ECD(26-232)-mFc (human).
T2 construct: also called IL4Rα-ECD protein
The assay can be described thus: competition ELISA, hIL4R-ECD-mFc captured by anti-mFc, biotinylated human IL4 as competitor. A general note: In an ELISA, binding on a coated surface is turned into a signal by an enzyme label.

The target of assay [3] is T1, hIL4Rα-ECD(26-232)-His. The assay can be described thus: SPR (Biacore 8K), antibody captured on Protein A, antigen as analyte, 1:1 model. This is another data set of the same source.

Experimental findings from patent EP4755920A1 (Simcere Pharmaceutical Co., Ltd., dated 2026) are described below.

Read-outs that look alike come from different tables or passages of the source.

B1: IL4R-hum-07H1L3 (antibody, V domains shown)
VH: EVQLVQSGAEVKKPGSSVKVSCKASGYTFSEYTIHWVRQAPGQGLEWMGWFYPGRGSIKYNEKFKDRVTITADKSTSTAYMELSSLRSEDTAVYYCTRHEYRGSNYAMDYWGQGTTVTVSS
VL: DIVMTQSPDSLAVSLGERATINCRSSQSIVHSSGNTYLQWYQQKPGQSPKLLIYKVSNRFSGVPDRFSGSGSGTDFTLTISSLQAEDVAVYYCFQGSHVPPTFGGGTKVEIK
notes: also called IL4AR-hum-07H1L3; humanized antibody of IL4R-CHI-07, H1 + L3
In assay [1], B1 showed an equilibrium dissociation constant (Kd) of 315 pM, a koff of 0.000468 s⁻¹ and a kon of 1.48e+06 M⁻¹ s⁻¹. Further, the IC50 in assay [2] worked out at 1410 pM.

B2: IL4R-hum-17L1H4 (antibody, V domains shown)
VH: EVQLVQSGAEVKKPGASVKVSCKASGYTFTSYNMHWARQAPGQRLEWMGSIYPGNGDTSYNQKFKGRVTITVDKSASTAYMELSSLRSEDTAVYYCARGGRLRRGDWFAYWGQGTLVTVSS
VL: DIQMTQSPSSLSASVGDRVTITCRASENIYSYLIWYQQKPGKSPKLLIYDAKTLAEGVPSRFSGSGSGTDFTLTISSLQPEDFATYYCQHHYGTPLTFGGGTKVEIK
notes: also called humanized antibody of IL4R-CHI-17, L1 + H4
In assay [1], B2 had a Kd of 283 pM, a koff of 0.000302 s⁻¹ and a kon of 1.07e+06 M⁻¹ s⁻¹. In assay [2], this molecule had a half-inhibitory concentration (IC50) of 1820 pM.

B3: IL4R-hum-18H5L1 (antibody, V domains shown)
VH: EVTLKESGPVLVKPTETLTLTCTVSGFSLTNYGVHWIRQPPGKALEWLGVIWSGGSTDYNAAFKSRLTISKDNSKSQVVLTMTNMDPVDTATYYCARNKGTRPVFDYWGQGTTVTVSS
VL: DIQMTQSPSSLSASVGDRVTITCRASENIYSYLAWYQQKPGKAPKLLIYNAKTLAEGVPSRFSGSGSGTDFTLTISSLQPEDFATYYCQHYVSPLTFGQGTKLEIK
notes: also called humanized antibody of IL4R-CHI-18, H5 + L1
Take B3: in assay [1], the equilibrium dissociation constant (Kd) came to 76.3 pM, the off-rate (koff) was 0.000151 s⁻¹ and the kon worked out at 1.98e+06 M⁻¹ s⁻¹. Further, in assay [2], the IC50 was 2390 pM.

B4: IL4R-hum-13H1aL2a (antibody, V domains shown)
VH: EVQLVQSGAEVKKPGASVKVSCKASGYTFTDYYMNWVRQAPGQRLEWMGTINPYNAGTGYNQKFKGRVTITVDKSASTAYMELSSLRSEDTAVYYCARSLLRRRGAMDYWGQGTTVTVSS
VL: DIVLTQSPDSLAVSLGERATINCRASKSVSTSGYGYIHWYQQKPGQPPKLLIYLVDNLESGVPDRFSGSGSGTDFTLTISSLQAEDVATYYCQHIRELYTFGGGTKVEIK
notes: also called humanized antibody of IL4R-CHI-13, H1a + L2a
For the molecule B4, in assay [1], binding was characterised by a dissociation constant (Kd) of 69.2 pM, the koff was 9.25e-05 s⁻¹ and the kon is 1.34e+06 M⁻¹ s⁻¹. In assay [2], this molecule came in with a 50% inhibitory concentration (IC50) of 1920 pM.

B5: IL4R-hum-04H7L1 (antibody, V domains shown)
VH: EVQLQESGPGLVKPSETLSLTCTVSGYSISSDYAWNWIRQPPGKGLEWIGYISYSGSSSYNPSLKSRVTISVDTSKNQFSLKLSSVTAADTAVYYCARGGLRRRGLFDYWGQGTTVTVSS
VL: DIQLTQSPSFLSASVGDRVTITCRATSSVTYMHWYQQKPGKAPKPWIYATSNLASGVPSRFSGSGSGTEFTLTISSLQPEDFATYYCQQWSSIPLTFGQGTKLEIK
notes: also called humanized antibody of IL4R-CHI-04, H7 + L1
In assay [1], B5 registered a Kd of 233 pM, a koff of 0.000445 s⁻¹ and a kon of 1.91e+06 M⁻¹ s⁻¹. The same molecule returned an IC50 in assay [2] of 1520 pM.

B6: IL4R-CHI-17 (antibody, V domains shown)
VH: QAYLQQSGAELVRPGASVKMSCKASGYTFTSYNMHWAKQTPRQGLEWIGSIYPGNGDTSYNQKFKGKATLTVDKSSSTAYMQLSSLTSEDSAVYFCARGGRLRRGDWFAYWGQGTLVTVSA
VL: DIQMTQSPASLSASVGETVTITCRASENIYSYLIWYQQKQGKSPQLLVYDAKTLAEGVPSRFSGSGSGSQFSLKINSLQPEDFGTYYCQHHYGTPLTFGGGTKLELK
notes: Chimeric IgG: murine variable regions on human IgG4 CH1-CH2-CH3 and human kappa constant regions; also called anti-IL4Rα chimeric antibody 17
The molecule B6 registered a dissociation constant (Kd) in assay [3] of 289 pM.

B7: IL4R-CHI-13 (antibody, V domains shown)
VH: EVQLQQSGPVLVKPGASVKMSCKASGYTFTDYYMNWVKQRHGKSLDWIGTINPYNGGTGYNQKFKGKATLTVDKSSSTAYMELNSLTSEDSAVYFCARSLLRRRGAMDYWGQGTSVTVSS
VL: DIVLTQSPASLVVSLGQRATISCRASKSVSTSGYGYIHWYRQKPGQPPKLLIYLVSNLESGVPARFSGSGSGTDFTLNIHPVEEEDAATYYCQHIRELYTFGGGTKLEIK
notes: Chimeric IgG: murine variable regions on human IgG4 CH1-CH2-CH3 and human kappa constant regions; also called anti-IL4Rα chimeric antibody 13
In assay [3], B7 showed a dissociation constant Kd of 77.9 pM.

B8: IL4R-CHI-18 (antibody, V domains shown)
VH: QVQLKQSGPGLVQPSQSLSVTCTVSGFSLTNYGVHWVRQSPGKGLEWLGVIWSGGSTDYNAAFKSRLSISKDNSKSQVFFKMNSLQADDTAIYYCARNKGTRPVFDYWGQGTTLTVSS
VL: DIQMTQSPASLSASVGETVTITCRASENIYSYLAWYQQKQGKSPQLLVYNAKTLAEGVPSRFSGSGSGTQFSLKINSLQPEDFGSYYCQHYVSPLTFGAGTKLEVK
notes: Chimeric IgG: murine variable regions on human IgG4 CH1-CH2-CH3 and human kappa constant regions; also called anti-IL4Rα chimeric antibody 18
In assay [3], B8 gave a Kd of 94.3 pM.

B9: IL4R-hum-14L2H2 (antibody, V domains shown)
VH: EVQLVESGGGLVQPGGSLRLSCAASGFTFSSYAMSWVRQAPEKRLEWVAIISGGGDSTYYPDSVKGRFTISRDNAKNSLYLQMNSLRAEDTAVYYCARLHYWYFDFWGQGTTVTVSS
VL: DIQMTQSPSSLSASVGDRVTITCKASEDLYNRLAWYQQKPGKAPKLLISGATSLETGVPSRFSGSGSGRDFTLTISSLQPEDFATYYCQQYWRNPYTFGGGTKVEIK
notes: also called humanized antibody of IL4R-CHI-14, L2 + H2
In assay [1], B9 showed a Kd of 154 pM, a koff of 5.07e-05 s⁻¹ and an on-rate (kon) of 329000 M⁻¹ s⁻¹. Further, in assay [2], the IC50 is 2200 pM.

B10: IL4R-CHI-14 (antibody, V domains shown)
VH: EVMLVESGGGLVKPGGSLKLSCAASGFTFSSYAMSWVRQTPEKRLEWVAIISGGGDSTYYPDSVKGRFTISRDNAKNTLYLQMSSLRSEDTALYFCARLHYWYFDFWGTGTTVTVSS
VL: DIQMTQSSSSFSVSLGDRVTITCKASEDLYNRLAWYQQKPGNAPRLLISGATSLETGVPSRFSGSGSGRDYTLIITSLQTEDVATYYCQQYWRNPYTFGGGTKLEIK
notes: Chimeric IgG: murine variable regions on human IgG4 CH1-CH2-CH3 and human kappa constant regions; also called anti-IL4Rα chimeric antibody 14
As to B10, the dissociation constant Kd in assay [3] is 97 pM.

B11: IL4R-CHI-07 (antibody, V domains shown)
VH: QVQLQQSGAELVKPGASVKLSCKASGYTFTEYTIHWVKQRSGQGLEWIGWFYPGRGSIKYNEKFKDKATLTADKSSSTVYMELSRLTSEDSAVYFCTRHEYRGSNYAMDYWGQGTSVTVSS
VL: DVLMTQTPLSLPVSLGDQASISCRSSQSIVHSSGNTYLQWYLQKPGQSPKLLIYKVSNRFSGVPDRFSGSGSGTDFTLKISRVEAEDLGVYYCFQGSHVPPTFGGGTKLEIK
notes: Chimeric IgG: murine variable regions on human IgG4 CH1-CH2-CH3 and human kappa constant regions; also called anti-IL4Rα chimeric antibody 07
B11 displayed a Kd in assay [3] of 294 pM. Compared with the last molecule, the Kd is about 3-fold higher.

B12: IL4R-CHI-04 (antibody, V domains shown)
VH: DVQLQESGPGLVKPSQSLSLTCTVTGYSITSDYAWNWIRQFPGNKLEWMGYISYSGSSSYNPSLKSRISITRDTSKNQFFLQLNSVTTDDTATYYCAGGGLRRRGLFDYWGQGTTLTVSS
VL: QIVLSQSPAILSASPGEKVTMTCRATSSVTYMHWYQQKPGSSPKPWIYATSNLASGVPARFSGSGSGTSYSLTISRVEAEDTATYYCQQWSSIPLTFGAGTKLELK
notes: Chimeric IgG: murine variable regions (from hybridoma IL4R-SFM-04) on human IgG4 CH1-CH2-CH3 and human kappa constant regions; also called anti-IL4Rα chimeric antibody 04
In the case of B12, in assay [3], the Kd amounted to 513 pM. Compared with the last molecule, the Kd is about 1.7-fold higher.

The Kd is a measure of binding affinity in units of concentration. By koff is commonly meant the first-order rate constant of dissociation. A low value points to a long-lived complex. Usually kon stands for the rate constant with which the complex forms. Broadly, the IC50 is the midpoint of a concentration-inhibition curve. Low readings indicate greater potency in that assay, high ones weaker potency in that assay.
